These are literature values, as cited in publication PMC6627431.

Among the targets are KV1.2 (UniProt P16389); KV1.3 (UniProt P22001); KV1.1 (UniProt Q09470).
Sequence of UniProt P16389 (P16389 whole entry): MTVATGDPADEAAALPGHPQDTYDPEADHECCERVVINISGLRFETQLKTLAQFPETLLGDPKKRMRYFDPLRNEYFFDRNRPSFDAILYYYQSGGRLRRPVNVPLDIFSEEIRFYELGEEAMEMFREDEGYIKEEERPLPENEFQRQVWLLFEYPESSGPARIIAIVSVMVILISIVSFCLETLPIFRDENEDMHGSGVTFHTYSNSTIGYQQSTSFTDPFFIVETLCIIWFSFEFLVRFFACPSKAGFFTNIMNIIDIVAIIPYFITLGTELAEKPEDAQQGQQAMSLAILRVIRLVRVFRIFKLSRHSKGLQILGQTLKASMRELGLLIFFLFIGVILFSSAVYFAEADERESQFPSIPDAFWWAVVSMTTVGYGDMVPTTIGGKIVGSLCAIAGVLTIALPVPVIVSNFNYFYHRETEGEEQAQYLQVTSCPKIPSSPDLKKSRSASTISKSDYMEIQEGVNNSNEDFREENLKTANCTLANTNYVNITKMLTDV
Sequence of UniProt Q09470 (Q09470 whole entry): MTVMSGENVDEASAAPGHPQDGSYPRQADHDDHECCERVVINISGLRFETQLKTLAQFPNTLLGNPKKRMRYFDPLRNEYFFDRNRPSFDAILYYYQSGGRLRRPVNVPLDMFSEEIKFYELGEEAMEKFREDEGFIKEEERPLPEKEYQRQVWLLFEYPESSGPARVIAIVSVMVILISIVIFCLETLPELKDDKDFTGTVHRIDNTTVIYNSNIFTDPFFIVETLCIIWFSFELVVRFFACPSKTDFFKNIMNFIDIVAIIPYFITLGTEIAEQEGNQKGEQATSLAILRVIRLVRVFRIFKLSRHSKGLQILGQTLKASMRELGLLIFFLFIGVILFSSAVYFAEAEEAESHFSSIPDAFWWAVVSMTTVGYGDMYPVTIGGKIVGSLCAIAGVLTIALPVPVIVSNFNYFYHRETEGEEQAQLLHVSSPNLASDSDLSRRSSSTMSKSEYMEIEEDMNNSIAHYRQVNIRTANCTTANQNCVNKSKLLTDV
Sequence of UniProt P22001 (P22001 whole entry): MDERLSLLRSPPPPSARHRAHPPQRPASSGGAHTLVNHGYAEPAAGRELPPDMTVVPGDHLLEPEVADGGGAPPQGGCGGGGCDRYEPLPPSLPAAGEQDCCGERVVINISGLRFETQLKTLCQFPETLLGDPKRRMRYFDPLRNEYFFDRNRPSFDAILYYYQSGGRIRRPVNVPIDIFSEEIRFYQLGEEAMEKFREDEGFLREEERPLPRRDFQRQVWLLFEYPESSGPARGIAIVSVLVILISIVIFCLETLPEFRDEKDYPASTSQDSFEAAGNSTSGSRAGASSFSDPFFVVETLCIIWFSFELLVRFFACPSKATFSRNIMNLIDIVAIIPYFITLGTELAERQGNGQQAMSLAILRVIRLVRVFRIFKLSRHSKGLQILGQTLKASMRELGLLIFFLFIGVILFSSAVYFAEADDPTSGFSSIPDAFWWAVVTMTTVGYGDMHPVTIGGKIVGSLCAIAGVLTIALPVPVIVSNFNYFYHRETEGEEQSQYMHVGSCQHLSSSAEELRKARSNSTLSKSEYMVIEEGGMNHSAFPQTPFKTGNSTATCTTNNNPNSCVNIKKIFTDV

Regarding BgK (from UniProt P29186), the Kd – broadly, a measure of binding affinity in units of concentration – with KV1.2 is 15 nM; with KV1.3 it was 10 nM; in the data set with KV1.1, 6 nM.
